Columns and labels:
CD3 on Jurkat cells = target: T1, CD3 on Jurkat cells (human, UniProt P07766;P09693;P04234); test: flow cytometry on Jurkat cells, FITC-labelled secondary antibody, MFI (Example 3)
T1 construct: on the surface of Jurkat cells
Procedure: The Jurkat cells were adjusted to a concentration of 4×10⁶ cells/ml with PBS, and the cell suspension (50 μl/well) and different concentrations of CD3 antibodies (50 μl/well) were sequentially added to a U-shaped 96-well plate and mixed evenly to achieve final antibody concentrations of […]. The cells were incubated in a 4° C. refrigerator for 1.5 h. After the incubation was completed, the plate was centrifuged (300 g, 5 min), then the supernatant was removed and the residue was washed with PBS (200 μl/well). Finally, FITC-conjugated AffiniPure Rat Anti-Mouse IgG (H+L) was added for staining, and flow cytometry was used for analysis and quantification.

Human CD3E & CD3G [1] = target: T2, Human CD3E & CD3G (human, UniProt P07766;P09693); test: ELISA on plate-coated CD3E & CD3G heterodimer protein (Example 2); 95% CI 25,03 to 66,53 ng/ml, R squared 0.9718
T2 construct: recombinant, tag given as Lama Fc; also called CD3E & CD3G heterodimer protein; CD3E/G antigen
T2 sequence (P07766 23-126 limits assumed, chain 1 of 2): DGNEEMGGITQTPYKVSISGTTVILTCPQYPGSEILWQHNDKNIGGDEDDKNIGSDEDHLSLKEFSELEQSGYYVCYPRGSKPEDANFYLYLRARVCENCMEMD
T2 sequence (P09693 23-116 limits assumed, chain 2 of 2): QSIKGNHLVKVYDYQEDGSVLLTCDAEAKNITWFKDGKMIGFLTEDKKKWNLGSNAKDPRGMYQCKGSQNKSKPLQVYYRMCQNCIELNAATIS
Procedure: (§1) An ELISA plate was coated with CD3E & CD3G heterodimer protein (as shown in FIG. 3) at 100 ng/well at 4° C. overnight. The next day, the plate was blocked with a blocking solution (3% BSA in 1×PBS) for 2 h, washed with a washing solution and drained. The plate was then added with gradiently diluted humanized CD3 antibodies, and incubated at 37° C. for 1 h. The reaction solution was discarded, and the plate was washed and drained. The plate was then added with diluted detection antibody (THE™ His Tag Antibody [HRP]) at 100 μL per well and incubated at 37° C. for 1 h. The detection antibody was discarded, and the plate was washed and drained. The plate was then added with a single-component TMB color developing solution returned to room temperature at 100 μL per well, and the color development was performed at 37° C. for 10 min. After the color was developed, a stop solution was added to the plate at 100 μL per well to terminate the color development reaction. The absorbance was read at 450 nm using a microplate reader.

Human CD3E & CD3G [2] = target: T2, Human CD3E & CD3G; test: ELISA, plate coated with CD3E & CD3G heterodimer protein (100 ng/well), anti-His tag HRP detection (Example 2)
Procedure: as §1

Human CD3E & CD3G [3] = target: T2, Human CD3E & CD3G; test: ELISA on plate-coated CD3E & CD3G heterodimer protein (Example 2); 95% CI 20,94 to 55,12 ng/ml, R squared 0.9704
Procedure: as §1

Human CD3E & CD3G [4] = target: T2, Human CD3E & CD3G; test: ELISA on plate-coated CD3E & CD3G heterodimer protein (Example 2); 95% CI 8,947 to 24,24 ng/ml, R squared 0.9587
Procedure: as §1

Human CD3E & CD3G [5] = target: T2, Human CD3E & CD3G; test: ELISA on plate-coated CD3E & CD3G heterodimer protein (Example 2); 95% CI 23,44 to 39,91 ng/ml, R squared 0.9911
Procedure: as §1

T1 sequence (P07766 23-207, chain 1 of 3): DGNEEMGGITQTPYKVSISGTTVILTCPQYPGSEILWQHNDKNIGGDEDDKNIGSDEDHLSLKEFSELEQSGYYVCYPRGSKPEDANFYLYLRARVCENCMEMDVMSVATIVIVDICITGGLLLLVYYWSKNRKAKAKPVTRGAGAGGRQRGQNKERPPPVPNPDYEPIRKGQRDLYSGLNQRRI
T1 sequence (P09693 23-182, chain 2 of 3): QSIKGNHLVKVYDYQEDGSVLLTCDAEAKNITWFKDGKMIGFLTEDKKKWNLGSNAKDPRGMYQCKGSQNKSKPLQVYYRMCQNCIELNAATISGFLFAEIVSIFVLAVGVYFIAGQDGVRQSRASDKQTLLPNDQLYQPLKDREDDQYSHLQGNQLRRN
T1 sequence (P04234 22-171, chain 3 of 3): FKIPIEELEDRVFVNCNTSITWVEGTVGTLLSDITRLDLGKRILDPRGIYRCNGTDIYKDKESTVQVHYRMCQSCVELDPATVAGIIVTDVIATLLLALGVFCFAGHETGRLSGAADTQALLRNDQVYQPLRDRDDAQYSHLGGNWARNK

Row | Binder | EC50 (read off the curve) (CD3 on Jurkat cells) | binding result (Human CD3E & CD3G [2]) | other results
1 | VH_V2_VL_V4 (antibody, V domains shown, also called HV2-LV4) VH: EVQLVESGGGLVQPGRSLRLSCAASGFTFNNYWMSWVRQAPGKGLEWVSAITKTGGSTYYPDSVKGRFTISRDNSKSTLYLQMNSLRAEDTATYYCTREYYYDPYIDYWGQGVLVTVSS VL: QFALTQPRSVSGSLGQSVTLSCTRTTGNIGSNYVNWYQQHEGKAPKTMIYRDDKRPSGVPDRFSGSIDRSSNTASLTISGVQAEDEADYYCQSYSSGINIFGGGTKLTVL | ~0.05 µg/mL |  | EC50 (Human CD3E & CD3G [1]): 0.0405 µg/mL
2 | VH_V4_VL_V1 (antibody, V domains shown, also called HV4-LV1) VH: EVQLVESGGGLVQPGGSLRLSCAASGFTFNNYWMTWIRQAPGKGLEWVASITKTGGSTYYPDSVKGRFTISRDNSKSTLYLQMNSLRAEDTAVYYCTREYYYDPYIDYWGQGTLVTVSS VL: QSALTQPRSVSGSPGQSVTISCTGTTGNIGSNYVSWYQQHPGKAPKLMIYRDDKRPSGVPDRFSGSKSGNTASLTISGLQAEDEADYYCQSYSSGINIFGGGTKLTVL |  | no binding (tested: 10 µg/ml) | 
3 | C3002HC-LV4 (antibody, V domains shown) VH: EVQLVESGGGLVQPGGSLRLSCAASGFTFNNYWMTWIRQAPGKGLEWVASITKTGGSTYYPDSVKGRFTISRDNAKNSLYLQMNSLRAEDTAVYYCTREYYYDPYIDYWGQGTMVTVSS VL: QFALTQPRSVSGSLGQSVTLSCTRTTGNIGSNYVNWYQQHEGKAPKTMIYRDDKRPSGVPDRFSGSIDRSSNTASLTISGVQAEDEADYYCQSYSSGINIFGGGTKLTVL | ~0.05 µg/mL |  | 
4 | VH_V2_VL_V2 (antibody, V domains shown, also called HV2-LV2) VH: EVQLVESGGGLVQPGRSLRLSCAASGFTFNNYWMSWVRQAPGKGLEWVSAITKTGGSTYYPDSVKGRFTISRDNSKSTLYLQMNSLRAEDTATYYCTREYYYDPYIDYWGQGVLVTVSS VL: QFALTQPRSVSGNLGSSVKISCKRTTGNIGSNYVNWYQQHEGKAPTTMIYRDDKRPDGVPDRFSGSKDRSGNTALLTINNLQTEDEADYYCQSYSSGINIFGGGTKLTVL |  | no binding (tested: 10 µg/ml) | 
5 | C3002-2-HC-LV4 (antibody, V domains shown) VH: EVQLVESGGGLVQPGGSLRLSCAASGFTFNNYWMTWIRQAPGKGLEWVASITKTGGSTYYPDSVKGRFTISRDNAKNSLYLQMNSLRAEDTATYYCTREYYYDPYIDYWGQGVMVTVSS VL: QFALTQPRSVSGSLGQSVTLSCTRTTGNIGSNYVNWYQQHEGKAPKTMIYRDDKRPSGVPDRFSGSIDRSSNTASLTISGVQAEDEADYYCQSYSSGINIFGGGTKLTVL | ~0.04 µg/mL |  | 
6 | VH_V1_VL_V4 (antibody, V domains shown, also called HV1-LV4) VH: EVQLVESGGGLVQPGGSLRLSCAASGFTFNNYWMSWVRQAPGKGLEWVSAITKTGGSTYYADSVKGRFTISRDNSKNTLYLQMNSLRAEDTAVYYCTREYYYDPYIDYWGQGTLVTVSS VL: QFALTQPRSVSGSLGQSVTLSCTRTTGNIGSNYVNWYQQHEGKAPKTMIYRDDKRPSGVPDRFSGSIDRSSNTASLTISGVQAEDEADYYCQSYSSGINIFGGGTKLTVL | ~0.04 µg/mL |  | EC50 (Human CD3E & CD3G [4]): 0.0148 µg/mL

More lines, main results first:

Row | EC50 (read off the curve) (CD3 on Jurkat cells) | binding result (Human CD3E & CD3G [2]) | Binder | other results
7 | ~0.04 µg/mL |  | VH_V3_VL_V4 (antibody, V domains shown, also called HV3-LV4) VH: EVQLVESGGGLVQPGRSLRLSCAASGFTFNNYWMSWVRQAPGKGLEWVASITKTGGSTYYPDSVKGRFTISRDNAKSTLYLQMNSLRSEDTATYYCTREYYYDPYIDYWGQGVLVTVSS VL: QFALTQPRSVSGSLGQSVTLSCTRTTGNIGSNYVNWYQQHEGKAPKTMIYRDDKRPSGVPDRFSGSIDRSSNTASLTISGVQAEDEADYYCQSYSSGINIFGGGTKLTVL | EC50 (Human CD3E & CD3G [3]): 0.0337 µg/mL
8 | ~0.04 µg/mL |  | VH_V4_VL_V4 (antibody, V domains shown, also called HV4-LV4) VH: EVQLVESGGGLVQPGGSLRLSCAASGFTFNNYWMTWIRQAPGKGLEWVASITKTGGSTYYPDSVKGRFTISRDNSKSTLYLQMNSLRAEDTAVYYCTREYYYDPYIDYWGQGTLVTVSS VL: QFALTQPRSVSGSLGQSVTLSCTRTTGNIGSNYVNWYQQHEGKAPKTMIYRDDKRPSGVPDRFSGSIDRSSNTASLTISGVQAEDEADYYCQSYSSGINIFGGGTKLTVL | EC50 (Human CD3E & CD3G [5]): 0.0305 µg/mL
9 |  | no binding (tested: 10 µg/ml) | VH_V3_VL_V2 (antibody, V domains shown, also called HV3-LV2) VH: EVQLVESGGGLVQPGRSLRLSCAASGFTFNNYWMSWVRQAPGKGLEWVASITKTGGSTYYPDSVKGRFTISRDNAKSTLYLQMNSLRSEDTATYYCTREYYYDPYIDYWGQGVLVTVSS VL: QFALTQPRSVSGNLGSSVKISCKRTTGNIGSNYVNWYQQHEGKAPTTMIYRDDKRPDGVPDRFSGSKDRSGNTALLTINNLQTEDEADYYCQSYSSGINIFGGGTKLTVL | 
10 |  | no binding (tested: 10 µg/ml) | VH_V3_VL_V1 (antibody, V domains shown, also called HV3-LV1) VH: EVQLVESGGGLVQPGRSLRLSCAASGFTFNNYWMSWVRQAPGKGLEWVASITKTGGSTYYPDSVKGRFTISRDNAKSTLYLQMNSLRSEDTATYYCTREYYYDPYIDYWGQGVLVTVSS VL: QSALTQPRSVSGSPGQSVTISCTGTTGNIGSNYVSWYQQHPGKAPKLMIYRDDKRPSGVPDRFSGSKSGNTASLTISGLQAEDEADYYCQSYSSGINIFGGGTKLTVL | 
